Test results: paper PMC6343935

Target: Taggert virus (TAGV) viral ovarian tumor domain protease (vOTU) (Taggert virus (TAGV))
Assay: ITC

Work on “ubiquitin (Ub), wild type (from UniProt P0CG48 1-76) (natural protein)” yielded a dH of -4.68 kcal/mol and a stoichiometry N of 1.34 sites.
